In the supplement of paper PMC10065799, “High-throughput profiling of sequence recognition by tyrosine kinases and SH2 domains using bacterial peptide display” (eLife, 2023):

How the values were obtained:
EPHB2 = EPHB2 (UniProt P29323); experiment: phosphorylation enrichment, bacterial display (enrichment ratio); higher = better substrate or ligand; peptides without Tyr show the background
EPHB1 = EPHB1 (UniProt P54762); experiment: as above
AncSZ = experiment: as above
c-Src = experiment: as above
Jak2 = Jak2 (UniProt O60674); experiment: as above
Jak2, sequence (O60674 whole entry, looked up): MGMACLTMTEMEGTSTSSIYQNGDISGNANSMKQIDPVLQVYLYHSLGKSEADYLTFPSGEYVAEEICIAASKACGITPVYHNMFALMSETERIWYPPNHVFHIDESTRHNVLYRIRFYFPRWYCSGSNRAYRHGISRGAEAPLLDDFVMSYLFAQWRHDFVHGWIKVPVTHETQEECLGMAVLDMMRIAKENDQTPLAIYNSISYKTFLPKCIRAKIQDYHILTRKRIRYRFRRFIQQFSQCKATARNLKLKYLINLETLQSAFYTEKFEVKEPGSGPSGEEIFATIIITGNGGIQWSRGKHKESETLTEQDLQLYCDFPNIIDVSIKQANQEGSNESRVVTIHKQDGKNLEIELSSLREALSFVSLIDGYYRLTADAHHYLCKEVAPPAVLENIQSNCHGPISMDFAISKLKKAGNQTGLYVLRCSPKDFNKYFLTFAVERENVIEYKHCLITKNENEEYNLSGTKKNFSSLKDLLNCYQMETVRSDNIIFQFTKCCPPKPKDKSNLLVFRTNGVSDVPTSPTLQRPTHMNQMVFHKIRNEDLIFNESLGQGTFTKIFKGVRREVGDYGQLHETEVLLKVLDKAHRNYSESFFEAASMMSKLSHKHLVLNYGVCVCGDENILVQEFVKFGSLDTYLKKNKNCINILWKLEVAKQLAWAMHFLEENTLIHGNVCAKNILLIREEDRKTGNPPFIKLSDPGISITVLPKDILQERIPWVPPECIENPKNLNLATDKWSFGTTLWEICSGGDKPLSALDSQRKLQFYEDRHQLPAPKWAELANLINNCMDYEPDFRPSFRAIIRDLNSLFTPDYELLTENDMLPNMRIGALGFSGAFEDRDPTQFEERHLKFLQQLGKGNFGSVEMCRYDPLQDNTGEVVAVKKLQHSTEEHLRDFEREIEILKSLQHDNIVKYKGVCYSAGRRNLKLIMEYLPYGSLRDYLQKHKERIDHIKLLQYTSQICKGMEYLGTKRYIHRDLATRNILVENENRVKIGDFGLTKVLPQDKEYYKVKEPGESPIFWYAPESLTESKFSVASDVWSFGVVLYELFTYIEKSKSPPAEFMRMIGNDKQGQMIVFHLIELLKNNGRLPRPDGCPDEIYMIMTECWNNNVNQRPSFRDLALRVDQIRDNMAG

FGFR1 = FGFR1 (UniProt P11362); experiment: as above
Fyn = Fyn (UniProt P06241); experiment: as above
c-Abl (mouse) = experiment: as above
FGFR3 = FGFR3 (UniProt P22607); experiment: as above
FGFR3, sequence (P22607 whole entry, looked up): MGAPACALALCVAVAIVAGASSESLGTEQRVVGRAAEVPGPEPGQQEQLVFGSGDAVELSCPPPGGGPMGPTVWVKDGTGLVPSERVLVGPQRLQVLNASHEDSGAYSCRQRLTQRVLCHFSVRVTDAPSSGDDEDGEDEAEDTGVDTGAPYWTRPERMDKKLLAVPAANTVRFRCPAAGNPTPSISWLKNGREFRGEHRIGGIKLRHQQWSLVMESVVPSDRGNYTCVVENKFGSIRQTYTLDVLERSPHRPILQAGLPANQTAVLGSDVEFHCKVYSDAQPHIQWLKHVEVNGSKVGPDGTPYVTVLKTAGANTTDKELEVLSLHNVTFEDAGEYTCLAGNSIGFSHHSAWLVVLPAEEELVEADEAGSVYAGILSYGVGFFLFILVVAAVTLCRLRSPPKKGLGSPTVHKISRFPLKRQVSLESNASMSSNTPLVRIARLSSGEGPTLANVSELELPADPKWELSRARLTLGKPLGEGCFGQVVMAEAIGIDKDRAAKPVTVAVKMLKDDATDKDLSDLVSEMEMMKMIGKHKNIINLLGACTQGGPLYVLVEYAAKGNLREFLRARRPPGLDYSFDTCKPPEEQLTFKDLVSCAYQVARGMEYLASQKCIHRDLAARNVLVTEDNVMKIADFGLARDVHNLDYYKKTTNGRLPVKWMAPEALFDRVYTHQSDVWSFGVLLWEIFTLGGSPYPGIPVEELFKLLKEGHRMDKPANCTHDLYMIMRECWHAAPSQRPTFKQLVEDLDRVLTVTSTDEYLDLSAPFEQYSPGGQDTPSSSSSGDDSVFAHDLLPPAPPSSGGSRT

Fes = Fes (UniProt P07332); experiment: as above
Fes, sequence (P07332 whole entry, looked up): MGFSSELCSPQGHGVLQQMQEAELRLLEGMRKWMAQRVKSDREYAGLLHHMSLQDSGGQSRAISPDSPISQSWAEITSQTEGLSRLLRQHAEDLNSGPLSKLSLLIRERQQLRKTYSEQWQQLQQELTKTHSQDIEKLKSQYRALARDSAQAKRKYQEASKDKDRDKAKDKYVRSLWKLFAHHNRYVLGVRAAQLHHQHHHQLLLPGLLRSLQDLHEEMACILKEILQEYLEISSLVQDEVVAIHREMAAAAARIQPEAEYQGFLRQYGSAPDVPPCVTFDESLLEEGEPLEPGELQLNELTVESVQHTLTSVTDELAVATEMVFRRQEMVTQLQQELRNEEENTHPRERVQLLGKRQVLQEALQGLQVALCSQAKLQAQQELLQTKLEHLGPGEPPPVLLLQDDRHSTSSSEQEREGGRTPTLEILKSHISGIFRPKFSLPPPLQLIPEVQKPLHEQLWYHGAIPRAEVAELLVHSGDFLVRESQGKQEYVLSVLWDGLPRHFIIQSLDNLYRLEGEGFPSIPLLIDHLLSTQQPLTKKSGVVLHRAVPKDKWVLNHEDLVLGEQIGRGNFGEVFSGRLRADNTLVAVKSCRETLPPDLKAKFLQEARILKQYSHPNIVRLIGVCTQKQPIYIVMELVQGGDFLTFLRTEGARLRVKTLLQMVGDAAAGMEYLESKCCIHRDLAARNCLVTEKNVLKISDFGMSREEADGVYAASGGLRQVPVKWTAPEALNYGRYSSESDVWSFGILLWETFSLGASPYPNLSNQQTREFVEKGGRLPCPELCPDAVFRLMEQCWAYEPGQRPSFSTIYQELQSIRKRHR

Hck = Hck (UniProt P08631); experiment: as above
Fer (mouse) = experiment: as above
MERTK = MERTK (UniProt Q12866); experiment: as above
c-Src SH2 = experiment: SH2 binding enrichment of the phosphorylated peptide, bacterial display (enrichment ratio); higher = better substrate or ligand; peptides without Tyr show the background
Grb2 SH2 = Grb2 SH2 (UniProt P62993); experiment: as above
Grb2 SH2, sequence (P62993 whole entry, looked up): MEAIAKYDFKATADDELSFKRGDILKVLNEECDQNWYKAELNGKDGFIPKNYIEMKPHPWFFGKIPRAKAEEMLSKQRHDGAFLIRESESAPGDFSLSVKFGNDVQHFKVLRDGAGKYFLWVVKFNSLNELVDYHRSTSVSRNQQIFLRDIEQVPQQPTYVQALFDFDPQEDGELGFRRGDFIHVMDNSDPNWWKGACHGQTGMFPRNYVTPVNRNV

SHP2-C SH2 = experiment: as above
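Throughout, for SH2 binding enrichment of the phosphorylated peptide, bacterial display: peptide library displayed on the E. coli surface as eCPX fusions, selected cells deep-sequenced, score is each peptide's frequency after selection divided by its frequency in the input.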
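Throughout, for phosphorylation enrichment, bacterial display: 11-residue human phosphosite peptides and single-mutation variants displayed on the E. coli surface, counted by deep sequencing, each peptide's frequency after selection divided by its frequency in the unselected input library; frequency after pTyr selection over input frequency; kinase dosed for 20-30% of maximal phosphorylation in three min.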

EPHB2, sequence (P29323 whole entry, looked up): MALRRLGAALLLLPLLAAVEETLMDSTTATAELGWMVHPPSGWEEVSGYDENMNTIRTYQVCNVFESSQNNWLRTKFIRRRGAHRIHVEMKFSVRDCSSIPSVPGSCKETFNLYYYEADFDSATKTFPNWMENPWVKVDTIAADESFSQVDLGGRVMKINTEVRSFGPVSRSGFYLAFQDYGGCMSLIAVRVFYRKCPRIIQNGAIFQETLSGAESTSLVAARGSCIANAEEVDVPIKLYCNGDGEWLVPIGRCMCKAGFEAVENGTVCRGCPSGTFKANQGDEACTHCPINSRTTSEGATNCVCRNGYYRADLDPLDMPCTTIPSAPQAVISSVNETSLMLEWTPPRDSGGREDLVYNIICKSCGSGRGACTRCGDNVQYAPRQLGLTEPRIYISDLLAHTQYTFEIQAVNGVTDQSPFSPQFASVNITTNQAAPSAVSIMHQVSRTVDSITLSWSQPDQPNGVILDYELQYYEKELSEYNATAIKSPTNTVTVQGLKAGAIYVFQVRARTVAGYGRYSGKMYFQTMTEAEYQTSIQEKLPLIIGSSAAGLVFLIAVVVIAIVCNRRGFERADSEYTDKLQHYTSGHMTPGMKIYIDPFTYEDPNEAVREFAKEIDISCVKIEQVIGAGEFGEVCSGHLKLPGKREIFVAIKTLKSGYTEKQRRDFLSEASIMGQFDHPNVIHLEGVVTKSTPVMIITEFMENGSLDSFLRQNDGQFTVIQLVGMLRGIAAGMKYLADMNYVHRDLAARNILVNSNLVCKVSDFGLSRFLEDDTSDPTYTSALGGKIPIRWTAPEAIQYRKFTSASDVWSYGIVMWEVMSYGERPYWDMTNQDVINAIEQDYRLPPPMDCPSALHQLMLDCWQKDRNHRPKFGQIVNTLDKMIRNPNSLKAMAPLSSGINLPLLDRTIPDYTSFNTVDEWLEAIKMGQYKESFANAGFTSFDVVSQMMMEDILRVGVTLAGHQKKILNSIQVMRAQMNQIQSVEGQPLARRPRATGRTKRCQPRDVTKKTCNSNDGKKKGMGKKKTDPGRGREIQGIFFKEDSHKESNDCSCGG
EPHB1, sequence (P54762 whole entry, looked up): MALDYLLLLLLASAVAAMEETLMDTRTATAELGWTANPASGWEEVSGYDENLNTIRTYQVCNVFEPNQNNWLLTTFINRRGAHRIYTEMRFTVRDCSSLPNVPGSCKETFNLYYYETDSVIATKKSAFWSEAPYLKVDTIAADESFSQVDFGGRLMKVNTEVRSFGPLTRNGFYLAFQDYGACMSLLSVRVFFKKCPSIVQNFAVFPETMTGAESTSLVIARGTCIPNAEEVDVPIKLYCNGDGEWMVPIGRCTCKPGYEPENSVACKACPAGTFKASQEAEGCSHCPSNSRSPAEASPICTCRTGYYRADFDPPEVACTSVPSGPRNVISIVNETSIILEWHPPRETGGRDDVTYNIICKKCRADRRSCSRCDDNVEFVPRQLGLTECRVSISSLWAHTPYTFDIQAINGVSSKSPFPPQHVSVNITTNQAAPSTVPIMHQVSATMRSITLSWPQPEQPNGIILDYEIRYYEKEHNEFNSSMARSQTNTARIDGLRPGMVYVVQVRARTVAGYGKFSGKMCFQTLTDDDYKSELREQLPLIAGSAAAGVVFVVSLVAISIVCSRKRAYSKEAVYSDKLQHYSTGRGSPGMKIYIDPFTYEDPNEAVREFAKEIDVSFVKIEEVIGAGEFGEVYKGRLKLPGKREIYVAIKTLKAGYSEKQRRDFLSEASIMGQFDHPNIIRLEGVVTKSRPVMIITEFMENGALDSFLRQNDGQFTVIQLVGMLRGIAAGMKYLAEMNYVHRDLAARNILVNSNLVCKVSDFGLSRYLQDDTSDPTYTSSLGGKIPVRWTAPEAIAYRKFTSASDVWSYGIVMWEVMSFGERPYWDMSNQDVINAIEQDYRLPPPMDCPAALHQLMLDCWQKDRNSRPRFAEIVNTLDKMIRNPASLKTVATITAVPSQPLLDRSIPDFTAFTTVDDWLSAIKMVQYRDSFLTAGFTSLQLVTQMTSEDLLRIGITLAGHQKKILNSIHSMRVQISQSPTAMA

Row | Sequence | phosphorylation enrichment (EPHB2) | phosphorylation enrichment (EPHB1) | phosphorylation enrichment (AncSZ) | phosphorylation enrichment (c-Src) | phosphorylation enrichment (Jak2) | phosphorylation enrichment (FGFR1) | phosphorylation enrichment (Fyn) | phosphorylation enrichment (c-Abl (mouse)) | phosphorylation enrichment (FGFR3) | phosphorylation enrichment (Fes) | phosphorylation enrichment (Hck) | phosphorylation enrichment (Fer (mouse)) | phosphorylation enrichment (MERTK) | SH2 binding enrichment (c-Src SH2) | SH2 binding enrichment (Grb2 SH2) | SH2 binding enrichment (SHP2-C SH2)
1 | DTYDPYLDIAL [USP36_Y268_V271I] | 0.892 | 1.03 | 1.6 | 2.42 | 1.32 | 0.901 | 1.47 | 0.982 | 0.968 | 1.55 | 1.06 | 0.721 | 0.611 | 0.451 | 0.781 | 0.451
2 | ADGLEYSRTEL [MMUT_Y287_G291E] | 0.572 | 0.483 | 1.03 | 0.461 | 0.747 | 0.552 | 0.527 | 0.621 | 0.637 | 0.873 | 0.547 | 0.56 | 0.437 | 0.447 | 0.717 | 0.596
3 | VDEERYDIEGK [TNNI3_Y112_A116G] | 0.74 | 0.737 | 1.44 | 0.509 | 1.3 | 0.539 | 0.506 | 0.896 | 0.754 | 1.3 | 0.623 | 0.561 | 0.491 | 0.683 | 1.02 | 0.98
4 | GLGGVYGGASG [KRT8_Y54_G53V] | 0.355 | 0.445 | 0.514 | 0.702 | 0.587 | 0.448 | 0.566 | 0.577 | 0.52 | 0.661 | 0.669 | 0.418 | 0.445 | 0.385 | 0.705 | 0.709
5 | VYYGSYSCPYG [NKAP_Y104_R106C] | 3.08 | 2.45 | 2.87 | 6.91 | 2.28 | 4.04 | 8.17 | 4.15 | 2.87 | 1.47 | 4.99 | 1.59 | 4.18 | 0.705 | 0.653 | 0.715
6 | FDGKEYDPVEA [MAPRE2_Y167_YF] | 0.545 | 0.636 | 1.5 | 0.573 | 1.2 | 0.545 | 0.62 | 0.924 | 0.801 | 1.43 | 0.617 | 0.631 | 0.493 | 0.795 | 0.985 | 0.408
7 | DPLLTHRFPPK [LMNA_Y481_Y481H] | 0.242 | 0.288 | 0.434 | 0.406 | 0.571 | 0.459 | 0.411 | 0.395 | 0.43 | 0.521 | 0.381 | 0.36 | 0.421 | 0.458 | 0.834 | 0.661
8 | KNRDVSSSDYF [USP24_Y2134_Y2134S] | 0.447 | 0.476 | 0.921 | 0.543 | 0.578 | 0.523 | 0.476 | 0.61 | 0.521 | 0.653 | 0.402 | 0.363 | 0.442 | 0.523 | 0.921 | 0.7
9 | IRRIAYEFVEM [ADA_Y84_K80R] | 0.543 | 0.343 | 0.887 | 0.458 | 0.638 | 0.869 | 0.417 | 0.489 | 0.511 | 0.872 | 0.433 | 2.85 | 0.469 | 1.15 | 0.542 | 0.435
10 | NTFEKYWPFFQ [GATM_Y103_YF] | 0.512 | 0.488 | 0.987 | 0.935 | 0.898 | 1.08 | 0.69 | 0.795 | 1.08 | 1.09 | 1.42 | 0.429 | 0.886 | 0.926 | 1.5 | 1.24
11 | QRHFVYFFSFL [PTEN_Y176_R173H_YF] | 0.761 | 0.983 | 1.91 | 0.664 | 1.46 | 1.69 | 1.07 | 1.31 | 1.46 | 1.88 | 1.09 | 1.11 | 0.717 | 0.911 | 1.48 | 0.842
12 | ARAFIYAIIPA [ACKtide_2014] | 2.22 | 5.28 | 1.4 | 3.54 | 1.86 | 1.07 | 2.65 | 2.27 | 1.1 | 1.46 | 4.01 | 0.81 | 6.87 | 0.764 | 1.03 | 0.777
13 | RLRVVYPWTQR [HBB_Y36_L33R] | 0.363 | 0.367 | 0.688 | 0.382 | 0.494 | 0.422 | 0.6 | 0.484 | 0.568 | 0.711 | 0.364 | 0.335 | 0.819 | 0.636 | 1.06 | 0.44
14 | LKEIRYPPFTD [ALDH3B2_Y362_H361R_YF] | 0.731 | 0.883 | 2.71 | 0.919 | 2.05 | 1.09 | 0.926 | 1.06 | 1.07 | 2.01 | 0.63 | 1.09 | 0.725 | 0.605 | 0.798 | 0.68
15 | ADDSYYTARSA [ZAP70_Y493] | 0.603 | 0.484 | 0.932 | 0.7 | 0.597 | 0.773 | 0.623 | 0.542 | 0.754 | 0.706 | 1.12 | 0.518 | 0.634 | 0.401 | 0.861 | 0.448
16 | QGIFGYHHFMQ [UFSP2_Y287_YF] | 0.59 | 0.794 | 1.32 | 0.531 | 1.27 | 0.838 | 0.615 | 1.13 | 0.93 | 1.41 | 0.692 | 0.857 | 0.549 | 1.2 | 1.47 | 1.23
